Blank lines part the entries; values can stand above or below the binder they belong to. Non-standard residues stand in square brackets, D forms with d. No end group written: not given here.
Biological target: A-beta1-42 (UniProt P05067)
Assay: iodixanol density gradient centrifugation of A-beta1-42 with FITC-labelled peptide; dye in fraction 12

Sequence of A-beta1-42 (P05067 672-713 limits assumed): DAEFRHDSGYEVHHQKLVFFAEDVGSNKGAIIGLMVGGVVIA

Peptide bound in fraction 12 [%]: 4%
B2: RD3 (rational D3) (SEQ ID NO: 4) (peptide)
peptide: [dR][dR][dP][dT][dL][dR][dH][dT][dH][dN][dR][dR]
modifications: also: FITC label, site not given here

Peptide bound in fraction 12 [%]: 20%
B4: RD2 (rational D3) (SEQ ID NO: 2) (peptide)
peptide: [dP][dT][dL][dH][dT][dH][dN][dR][dR][dR][dR][dR]
modifications: also: FITC label, site not given here

The remaining lines, values behind:

B1: NT-D3 (D3-N-Terminus) (SEQ ID NO: 6) (peptide)
peptide: [dR][dP][dR][dT][dR][dL]
Peptide bound in fraction 12 [%]: 0%

B3: D3 (SEQ ID NO: 11) (peptide)
peptide: [dR][dP][dR][dT][dR][dL][dH][dT][dH][dR][dN][dR]
modifications: also: FITC label, site not given here
Peptide bound in fraction 12 [%]: 4%

B5: D3Δhth (D3 with deletion hth) (SEQ ID NO: 1) (peptide)
peptide: [dR][dP][dR][dT][dR][dL][dR][dN][dR]
modifications: also: FITC label, site not given here
Peptide bound in fraction 12 [%]: 2%
